Source: US20210380714A1 (Amgen, published 2021)
Numbering of substitutions follows the chain as printed. Blank lines part the entries; values can stand above or below the binder they belong to.

How the values were obtained:
Rat MSLN = target: T1, Rat MSLN (Rattus norvegicus, UniProt Q9ERA7); test: FACS on 293T cells transiently expressing the orthologue
T1 construct: also called rat mesothelin
T1 sequence (target, looked up): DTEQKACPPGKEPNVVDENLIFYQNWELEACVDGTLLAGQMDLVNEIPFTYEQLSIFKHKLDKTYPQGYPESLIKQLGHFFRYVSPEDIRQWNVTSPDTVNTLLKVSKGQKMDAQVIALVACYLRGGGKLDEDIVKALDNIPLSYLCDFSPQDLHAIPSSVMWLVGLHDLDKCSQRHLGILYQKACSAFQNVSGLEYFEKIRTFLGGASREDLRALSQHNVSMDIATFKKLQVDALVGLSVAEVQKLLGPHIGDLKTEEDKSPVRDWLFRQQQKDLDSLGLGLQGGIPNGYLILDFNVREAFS
Procedure: (§1) FACs assays were performed by incubating hybridoma supernatants with 10,000 to 25,000 cells in PBS/2% Fetal bovine serum/2 mM Calcium Chloride at 4° C. for one hour followed by two washes with PBS/2% Fetal bovine serum/2 mM Calcium Chloride. Cells were then treated with florochrome-labeled secondary antibodies at 4° C. followed by one wash. The cells were resuspended in 50 μl of PBS/2% FBS and antibody binding was analyzed using a FACSCalibur™ instrument.

Mouse MSLN = target: T2, Mouse MSLN (Mus musculus, UniProt Q61468); test: as above
T2 construct: also called murine mesothelin
T2 sequence (target, looked up): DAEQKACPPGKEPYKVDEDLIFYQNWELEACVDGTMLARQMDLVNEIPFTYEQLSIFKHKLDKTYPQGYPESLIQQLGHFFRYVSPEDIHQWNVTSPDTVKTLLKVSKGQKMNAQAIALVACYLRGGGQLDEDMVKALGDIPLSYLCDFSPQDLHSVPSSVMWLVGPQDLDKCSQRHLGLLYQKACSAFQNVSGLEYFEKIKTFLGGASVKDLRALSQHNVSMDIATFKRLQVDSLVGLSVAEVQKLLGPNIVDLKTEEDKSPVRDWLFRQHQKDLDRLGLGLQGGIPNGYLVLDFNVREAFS
Procedure: as §1

binding result (Rat MSLN): binds | binding result (Mouse MSLN): binds
B1: Ab237 (Hu-anti-huMesothelin-2.37-IgG1) (antibody, V domains shown)
VH: QVQLQESGPGLVKPSQTLSLTCTVSGGSINNNNYYWTWIRQHPGKGLEWIGYIYYSGSTFYNPSLKSRVTISVDTSKTQFSLKLSSVTAADTAVYYCAREDTMTGLDVWGQGTTVTVSS
VL: DIQMTQSPSSLSASVGDRVTITCRASQSINNYLNWYQQKPGKAPTLLIYAASSLQSGVPSRFSGSRSGTDFTLTISSLQPEDFAAYFCQQTYSNPTFGQGTKVEVK
notes: Fully human antibody from XenoMouse; Only the variable domains are tied to Ab237

binding result (Mouse MSLN): no binding
B2: 158.3 (antibody, V domains shown)
VH: QVQLQESGPGLVKPSETLSLTCTVSGGSIISHYWSWIRQPPGKGLEWIGYIYYSGSTNYNPSLKSRVTISVDTSKNQFSLKLTSVTAADTAVYYCARDGWSAFDYWGQGTLVTVSS
VL: DIQMTQSPSSLSASVGDRVTITCRASQGIRNALGWYQQKPGKAPKRLIYAASSLQSGVPSRFSGSGSGTEFTLTISSLQPEDFATYYCLQHNSYPRTFGQGTKVEIRR
notes: also called 1.58.3 g1; 1.58.3 g2

binding result (Mouse MSLN): no binding
B3: 151 (antibody, V domains shown)
VH: B2 VH with I30S, H32Y, T83S, D98V, G99D, W100Y, S101K, Y105I, L111M
VL: DIQMTQSPSSLSASVGDRVTITCRASQGIRNDLHWYQQKPGKAPKRLIYAASSLQSGVPSRFSGSGSGTEFTLTISSLQPEDFATYYCLQHYSYPWTFGQGTKVEIK
notes: also called Ab1.51
